This is an account of results in IntAct's records for PubMed 11956294.

Sequences and labels used below:
B1: Inducible T-cell costimulator (Homo sapiens), Q9Y6W8 (parent)
chain: MKSGLWYFFLFCLRIKVLTGEINGSANYEMFIFHNGGVQILCKYPDIVQQFKMQLLKGGQILCDLTKTKGSGNTVSIKSLKFCHSQLSNNSVSFFLYNLDHSHANYYFCNLSIFDPPPFKVTLTGGYLHIYESQLCCQLKFWLPIGCAAFVVVCILGCILICWLTKKKYSSSVHDPNGEYMFMRAVNTAKKSRLTDVTL
partner: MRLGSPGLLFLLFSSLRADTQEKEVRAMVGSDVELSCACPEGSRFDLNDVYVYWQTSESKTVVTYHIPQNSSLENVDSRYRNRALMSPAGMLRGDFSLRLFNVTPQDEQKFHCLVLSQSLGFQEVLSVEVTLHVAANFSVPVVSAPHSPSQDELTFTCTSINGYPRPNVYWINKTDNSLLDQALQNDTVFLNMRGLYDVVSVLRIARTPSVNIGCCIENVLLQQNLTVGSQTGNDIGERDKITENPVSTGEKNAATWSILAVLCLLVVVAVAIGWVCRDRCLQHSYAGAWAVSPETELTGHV

The test covers variants of B1. To be noted: with icosl_human ICOSLG.
In the case of K52S, the “effect of a mutation on the interaction” value is “increasing interaction strength”.
Regarding F114S, the “effect of a mutation on the interaction” value was “disrupting interaction strength”.
As for K69S, the entry is “disrupting interaction strength”.
As for Q50S, the entry is “decreasing interaction strength”.
To D115S belongs “disrupting interaction strength”; to F51S, “disrupting interaction strength”.
Take D64S: the “effect of a mutation on the interaction” value was “decreasing interaction strength”.
As for S76E, the entry is “increasing interaction strength”.
To F119S belongs “disrupting interaction strength”.
As for K67S, the “effect of a mutation on the interaction” value is recorded as “disrupting interaction strength”.
Regarding Q49S, the “effect of a mutation on the interaction” value was “decreasing interaction strength”.
On to P117S, for which the “effect of a mutation on the interaction” value was “disrupting interaction strength”.
